Test results taken from publication PMC9482650, “Quantitative fragmentomics allow affinity mapping of interactomes” (Nature Communications, 2022).

Columns and labels:
Assay in all cases: holdup assay
Parameters in all cases: key: below the threshold = too weak to quantify, mostly under pKd 3.1 to 4
Conditions in all cases: plain residues with an end cap or a label only (N-terminal biotin on a linker: ado-ado)
FRMPD2_3, Q68DX3 = biological target: FRMPD2_3, Q68DX3
FRMPD4, Q14CM0 = biological target: FRMPD4, Q14CM0
NOS1, P29475 = biological target: NOS1, P29475
MAGI1_2, Q96QZ7 = biological target: MAGI1_2, Q96QZ7
DLG4_3, P78352 = biological target: DLG4_3, P78352
Inadl_9, Q8NI35 = biological target: Inadl_9, Q8NI35
LNX2_3, Q8N448 = biological target: T1, LNX2_3, Q8N448
T1 sequence (Q8N448 463-564, limits assumed, looked up): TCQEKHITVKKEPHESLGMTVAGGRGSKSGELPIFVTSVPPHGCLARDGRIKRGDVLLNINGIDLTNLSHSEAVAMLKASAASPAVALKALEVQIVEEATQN

APBA3_1, O96018 = biological target: T2, APBA3_1, O96018
T2 sequence (O96018 389-490, limits assumed, looked up): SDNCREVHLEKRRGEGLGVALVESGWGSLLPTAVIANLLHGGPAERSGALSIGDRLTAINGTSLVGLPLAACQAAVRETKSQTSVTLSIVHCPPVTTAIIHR

LIMK2, P53671 = biological target: LIMK2, P53671
NHERF3_4, Q5T2W1 = biological target: T3, NHERF3_4, Q5T2W1
T3 sequence (Q5T2W1 373-468, limits assumed, looked up): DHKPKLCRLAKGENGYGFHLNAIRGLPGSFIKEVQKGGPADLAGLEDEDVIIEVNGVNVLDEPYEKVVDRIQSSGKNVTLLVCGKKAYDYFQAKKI

LRRC7, Q96NW7 = biological target: T4, LRRC7, Q96NW7
T4 sequence (Q96NW7 1440-1537, limits assumed, looked up): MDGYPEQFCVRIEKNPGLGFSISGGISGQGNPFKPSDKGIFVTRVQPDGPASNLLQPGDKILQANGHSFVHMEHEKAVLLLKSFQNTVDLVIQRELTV

Inadl_4, Q8NI35 = biological target: Inadl_4, Q8NI35
PDZD2_2, O15018 = biological target: T5, PDZD2_2, O15018
T5 sequence (O15018 329-429, limits assumed, looked up): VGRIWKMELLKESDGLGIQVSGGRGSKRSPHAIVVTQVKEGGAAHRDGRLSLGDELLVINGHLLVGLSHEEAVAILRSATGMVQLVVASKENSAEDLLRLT

IL16_3, Q14005 = biological target: IL16_3, Q14005
DLG3_3, Q92796 = biological target: T6, DLG3_3, Q92796
T6 sequence (Q92796 374-475, limits assumed, looked up): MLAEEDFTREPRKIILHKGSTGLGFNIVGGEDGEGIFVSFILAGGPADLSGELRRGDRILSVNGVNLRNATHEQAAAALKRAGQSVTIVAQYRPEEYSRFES

NHERF4_4, Q86UT5 = biological target: NHERF4_4, Q86UT5
GORASP1, Q9BQQ3 = biological target: GORASP1, Q9BQQ3
LNX1_3, Q8TBB1 = biological target: LNX1_3, Q8TBB1
Inadl_1, Q8NI35 = biological target: Inadl_1, Q8NI35
AHNAK1, Q09666 = biological target: AHNAK1, Q09666
GIPC2, Q8TF65 = biological target: GIPC2, Q8TF65
GRID2IP_2, A4D2P6 = biological target: GRID2IP_2, A4D2P6
Inadl_5, Q8NI35 = biological target: Inadl_5, Q8NI35
SNX27, Q96L92 = biological target: SNX27, Q96L92
TJP1_3, Q07157 = biological target: TJP1_3, Q07157
PDZRN3_1, Q9UPQ7 = biological target: T7, PDZRN3_1, Q9UPQ7
T7 sequence (Q9UPQ7 244-349, limits assumed, looked up): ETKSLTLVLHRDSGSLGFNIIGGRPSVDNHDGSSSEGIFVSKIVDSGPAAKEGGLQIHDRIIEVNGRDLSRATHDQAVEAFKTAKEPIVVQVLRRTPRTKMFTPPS

SHANK1, Q9Y566 = biological target: T8, SHANK1, Q9Y566
T8 sequence (Q9Y566 658-767, limits assumed, looked up): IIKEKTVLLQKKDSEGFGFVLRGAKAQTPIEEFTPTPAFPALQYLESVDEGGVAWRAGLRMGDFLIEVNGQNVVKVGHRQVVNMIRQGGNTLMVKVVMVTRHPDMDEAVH

SIPA1L2, Q9P2F8 = biological target: T9, SIPA1L2, Q9P2F8
T9 sequence (Q9P2F8 945-1036, limits assumed, looked up): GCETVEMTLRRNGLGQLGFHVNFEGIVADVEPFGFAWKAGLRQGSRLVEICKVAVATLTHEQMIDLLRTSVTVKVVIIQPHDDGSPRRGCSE

DLG5_1, Q8TDM6 = biological target: DLG5_1, Q8TDM6
Chain of DLG5_1, Q8TDM6 (Q8TDM6 617-713): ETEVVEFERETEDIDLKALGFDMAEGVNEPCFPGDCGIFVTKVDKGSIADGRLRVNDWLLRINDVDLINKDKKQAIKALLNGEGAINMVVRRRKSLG

Chain of LIMK2, P53671 (P53671 143-248): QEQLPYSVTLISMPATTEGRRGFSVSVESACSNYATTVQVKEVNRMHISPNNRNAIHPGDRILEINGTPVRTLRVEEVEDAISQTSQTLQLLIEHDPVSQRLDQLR
Chain of GIPC2, Q8TF65 (Q8TF65 112-203): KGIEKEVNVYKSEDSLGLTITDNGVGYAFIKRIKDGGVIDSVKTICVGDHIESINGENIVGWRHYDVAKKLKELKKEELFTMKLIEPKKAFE
Chain of TJP1_3, Q07157 (Q07157 416-512): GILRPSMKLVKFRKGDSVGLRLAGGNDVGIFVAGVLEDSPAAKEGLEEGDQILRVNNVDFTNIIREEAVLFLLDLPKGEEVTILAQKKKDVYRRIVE
Chain of FRMPD2_3, Q68DX3 (Q68DX3 1073-1166): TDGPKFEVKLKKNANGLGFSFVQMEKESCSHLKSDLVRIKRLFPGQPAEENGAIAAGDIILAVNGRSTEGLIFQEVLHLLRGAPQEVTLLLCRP
Chain of FRMPD4, Q14CM0 (Q14CM0 67-160): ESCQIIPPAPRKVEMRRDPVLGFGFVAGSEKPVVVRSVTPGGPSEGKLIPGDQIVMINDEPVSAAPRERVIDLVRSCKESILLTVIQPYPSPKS
Chain of Inadl_9, Q8NI35 (Q8NI35 1530-1615): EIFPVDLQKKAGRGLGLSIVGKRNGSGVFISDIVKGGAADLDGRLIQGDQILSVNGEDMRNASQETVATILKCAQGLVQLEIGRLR
Chain of GORASP1, Q9BQQ3 (Q9BQQ3 1-208): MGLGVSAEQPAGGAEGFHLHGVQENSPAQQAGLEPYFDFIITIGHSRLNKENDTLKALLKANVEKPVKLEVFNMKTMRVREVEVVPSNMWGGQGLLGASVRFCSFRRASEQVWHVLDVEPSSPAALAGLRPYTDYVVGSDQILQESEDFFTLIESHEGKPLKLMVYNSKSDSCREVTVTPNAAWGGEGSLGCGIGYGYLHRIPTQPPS
Chain of LNX1_3, Q8TBB1 (Q8TBB1 500-596): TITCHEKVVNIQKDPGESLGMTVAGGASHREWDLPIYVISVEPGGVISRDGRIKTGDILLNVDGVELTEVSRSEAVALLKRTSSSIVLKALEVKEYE
Chain of NOS1, P29475 (P29475 9-101): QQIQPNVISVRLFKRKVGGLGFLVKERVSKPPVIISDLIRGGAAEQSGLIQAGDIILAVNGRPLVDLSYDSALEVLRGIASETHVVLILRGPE
Chain of GRID2IP_2, A4D2P6 (A4D2P6 272-370): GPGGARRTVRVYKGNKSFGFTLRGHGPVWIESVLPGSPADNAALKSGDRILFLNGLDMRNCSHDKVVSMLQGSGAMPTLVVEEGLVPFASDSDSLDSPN
Chain of Inadl_5, Q8NI35 (Q8NI35 673-780): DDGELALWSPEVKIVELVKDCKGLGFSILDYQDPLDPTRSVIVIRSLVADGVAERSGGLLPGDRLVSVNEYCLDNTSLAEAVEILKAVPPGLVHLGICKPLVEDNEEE
Chain of AHNAK1, Q09666 (Q09666 4-100): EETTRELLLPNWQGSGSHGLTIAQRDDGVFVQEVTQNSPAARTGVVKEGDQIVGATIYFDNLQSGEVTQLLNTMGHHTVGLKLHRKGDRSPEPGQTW
Chain of MAGI1_2, Q96QZ7 (Q96QZ7 456-580): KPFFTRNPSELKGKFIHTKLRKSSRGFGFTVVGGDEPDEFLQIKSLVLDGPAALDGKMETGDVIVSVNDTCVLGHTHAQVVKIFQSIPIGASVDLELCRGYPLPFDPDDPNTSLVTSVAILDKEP
Chain of DLG4_3, P78352 (P78352 306-403): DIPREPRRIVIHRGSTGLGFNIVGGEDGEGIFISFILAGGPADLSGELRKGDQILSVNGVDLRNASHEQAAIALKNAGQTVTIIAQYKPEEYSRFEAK
Chain of Inadl_1, Q8NI35 (Q8NI35 113-229): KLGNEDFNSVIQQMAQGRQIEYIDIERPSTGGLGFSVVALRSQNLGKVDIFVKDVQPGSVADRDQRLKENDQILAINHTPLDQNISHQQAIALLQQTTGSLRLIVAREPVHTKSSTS
Chain of Inadl_4, Q8NI35 (Q8NI35 547-651): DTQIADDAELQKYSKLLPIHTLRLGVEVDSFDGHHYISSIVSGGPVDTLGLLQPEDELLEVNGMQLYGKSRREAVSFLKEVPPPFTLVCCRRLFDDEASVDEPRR
Chain of IL16_3, Q14005 (Q14005 1107-1207): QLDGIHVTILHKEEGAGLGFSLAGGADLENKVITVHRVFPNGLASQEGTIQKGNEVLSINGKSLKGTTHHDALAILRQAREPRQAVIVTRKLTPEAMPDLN
Chain of NHERF4_4, Q86UT5 (Q86UT5 464-550): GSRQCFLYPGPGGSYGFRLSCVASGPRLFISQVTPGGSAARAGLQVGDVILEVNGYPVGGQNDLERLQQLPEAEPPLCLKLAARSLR

| Binder | pKd (FRMPD2_3, Q68DX3) | pKd (FRMPD4, Q14CM0) | pKd (NOS1, P29475) | pKd (MAGI1_2, Q96QZ7) | pKd (DLG4_3, P78352) | pKd (Inadl_9, Q8NI35) | pKd (LNX2_3, Q8N448) | pKd (APBA3_1, O96018) | pKd (LIMK2, P53671) | pKd (NHERF3_4, Q5T2W1) | pKd (LRRC7, Q96NW7) | pKd (Inadl_4, Q8NI35) | pKd (PDZD2_2, O15018) | pKd (IL16_3, Q14005) | pKd (DLG3_3, Q92796) | pKd (NHERF4_4, Q86UT5) | pKd (GORASP1, Q9BQQ3) | pKd (LNX1_3, Q8TBB1) | pKd (Inadl_1, Q8NI35) | pKd (AHNAK1, Q09666) | also measured |
| --- | --- | --- | --- | --- | --- | --- | --- | --- | --- | --- | --- | --- | --- | --- | --- | --- | --- | --- | --- | --- | --- |
| DFRHKSSFVI [JAM3, Q9BX67] | below the threshold | below the threshold | below the threshold | below the threshold | below the threshold | below the threshold | below the threshold | below the threshold | below the threshold | below the threshold | below the threshold | below the threshold | below the threshold | below the threshold | below the threshold | below the threshold | 4.82 | below the threshold | below the threshold | below the threshold | pKd (GIPC2, Q8TF65): below the threshold; pKd (GRID2IP_2, A4D2P6): below the threshold; pKd (Inadl_5, Q8NI35): below the threshold; pKd (SNX27, Q96L92): below the threshold; pKd (TJP1_3, Q07157): below the threshold; pKd (PDZRN3_1, Q9UPQ7): below the threshold; pKd (SHANK1, Q9Y566): below the threshold; pKd (SIPA1L2, Q9P2F8): below the threshold; pKd (DLG5_1, Q8TDM6): below the threshold |
| LGHTPFVDEL [UQCRC2, P22695] | below the threshold | 3.77 | below the threshold | below the threshold | below the threshold | below the threshold | below the threshold | below the threshold | below the threshold | below the threshold | below the threshold | below the threshold | below the threshold | below the threshold | below the threshold | below the threshold | below the threshold | below the threshold | below the threshold | below the threshold | pKd (GIPC2, Q8TF65): below the threshold; pKd (GRID2IP_2, A4D2P6): below the threshold; pKd (Inadl_5, Q8NI35): below the threshold; pKd (SNX27, Q96L92): 3.99; pKd (TJP1_3, Q07157): below the threshold; pKd (PDZRN3_1, Q9UPQ7): below the threshold; pKd (SHANK1, Q9Y566): below the threshold; pKd (SIPA1L2, Q9P2F8): below the threshold; pKd (DLG5_1, Q8TDM6): below the threshold |
| QYPGSPDSWV [PKP4, Q99569] | below the threshold | 3.53 | 3.78 | 3.48 | below the threshold | 3.72 | below the threshold | 3.63 | below the threshold | below the threshold | 4.97 | below the threshold | 6.06 | 3.55 | below the threshold | below the threshold | 3.79 | below the threshold | below the threshold | 3.51 | pKd (GIPC2, Q8TF65): 3.5; pKd (GRID2IP_2, A4D2P6): below the threshold; pKd (Inadl_5, Q8NI35): 3.87; pKd (SNX27, Q96L92): 4.72; pKd (TJP1_3, Q07157): 3.68; pKd (PDZRN3_1, Q9UPQ7): 3.77; pKd (SHANK1, Q9Y566): below the threshold; pKd (SIPA1L2, Q9P2F8): below the threshold; pKd (DLG5_1, Q8TDM6): below the threshold |
